{"source": "FireProtDB (doi:10.1021/bi027116n)", "proteins": {"B1": {"name": "2Fe-2S ferredoxin-5 wild type, P59799 (protein)", "chain": "MPKVIVANINAEFEGIENETIMQILYRNGIEIDSACGGHGQCTSCKVLIISGSENLYPAEFEEKDTLEENGMDPETERLSCQAKLNGKGDVVIYLP"}}, "conditions": "Aquifex aeolicus (strain VF5), reversible: no, whole UniProt chain shown; for denaturant midpoint (higher = more stable): 20 °C, GdnHCl", "note": "“And” between values parts separate entries of the source, which are not always exact repeats. Identical values can stand only once."}
{"protein": "B1", "values": [{"measurement": "denaturant midpoint (higher = more stable)", "setting": "pH 4, Absorbance, citric acid-NaH2PO4", "result": 3.2, "unit": "M"}, {"measurement": "denaturant midpoint (higher = more stable)", "setting": "pH 4, Emission, citric acid-NaH2PO4", "result": 3.2, "unit": "M"}, {"measurement": "denaturant midpoint (higher = more stable)", "setting": "pH 5, Absorbance, Unknown", "result": 6.7, "unit": "M"}, {"measurement": "denaturant midpoint (higher = more stable)", "setting": "pH 5, CD, Unknown", "result": 6.7, "unit": "M"}, {"measurement": "denaturant midpoint (higher = more stable)", "setting": "pH 5, Emission, Unknown", "result": 6.9, "unit": "M"}, {"measurement": "denaturant midpoint (higher = more stable)", "setting": "pH 10, Absorbance, Glycine-OH", "result": "7.5 M and 7.1 M"}, {"measurement": "denaturant midpoint (higher = more stable)", "setting": "pH 10, CD, Glycine-OH", "result": 7, "unit": "M"}, {"measurement": "denaturant midpoint (higher = more stable)", "setting": "pH 10, CD, glycine-OH", "result": "6.6 M and 6.3 M and 6.1 M"}, {"measurement": "denaturant midpoint (higher = more stable)", "setting": "pH 10, Emission, Glycine-OH", "result": 7, "unit": "M"}, {"measurement": "denaturant midpoint (higher = more stable)", "setting": "pH 10, Emission, glycine-OH", "result": "6.5 M and 6.1 M"}, {"measurement": "Tm", "setting": "pH 10, Thermal, Absorbance, Glycine-OH", "result": 116, "unit": "°C"}, {"measurement": "denaturant midpoint (higher = more stable)", "setting": "pH 11, CD, NaHCO3-NaOH", "result": 6.2, "unit": "M"}, {"measurement": "denaturant midpoint (higher = more stable)", "setting": "pH 11, Emission, NaHCO3-NaOH", "result": 6.2, "unit": "M"}]}
